Assay results: PMC3506661

Target: BAK (UniProt Q16611)
Assay: biotinylated BH3 peptide pull-down from lysate
Details: reference: wild type, okadaic acid then UV; sites S117

With “BAK (from UniProt Q16611) S117A, okadaic acid then UV” the “binding against the reference” value was “gained”.
